Results taken from publication doi:10.1101/2022.09.11.507491.

Biological target: HA-CXCR4-RLuc3 (UniProt P61073)
Assay: FRET or BRET

Chain of UniProt P61073 (P61073 whole entry): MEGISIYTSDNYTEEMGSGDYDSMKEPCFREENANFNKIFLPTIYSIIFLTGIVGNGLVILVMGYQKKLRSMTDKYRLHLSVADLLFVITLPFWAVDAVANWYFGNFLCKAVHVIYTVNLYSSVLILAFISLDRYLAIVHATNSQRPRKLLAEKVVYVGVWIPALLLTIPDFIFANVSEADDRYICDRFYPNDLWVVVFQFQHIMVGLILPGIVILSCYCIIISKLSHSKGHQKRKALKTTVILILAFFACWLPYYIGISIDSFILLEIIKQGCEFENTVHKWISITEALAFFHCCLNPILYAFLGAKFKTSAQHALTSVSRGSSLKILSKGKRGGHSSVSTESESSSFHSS

## mVenus-mini-Gαs/i(Y320F)
  Kd of BRET acceptor saturation (x axis: acceptor gMFI): 13.4

## mVenus-miniGαs/i WT
  Kd of BRET acceptor saturation (x axis: acceptor gMFI): 7.1

## mVenus-miniGαs/i(Y320E)
  Kd of BRET acceptor saturation (x axis: acceptor gMFI): 16.7
